Among the data in doi:10.64898/2025.12.10.692585 are stoichiometry N values, retold here.

The target of the test is Porcine RNA polymerase II, purified (porcine) (UniProt I3LGP4). Description: mass photometry.

As for “Porcine RNA polymerase II, purified (from UniProt I3LGP4 127-1300; P60899 1-125; A0A4X1VYD0 1-67; A0A8D0JYF1 1-58) (complex)”, the stoichiometry N (as a rule, the number of molecules, sites or subunits per partner or assembly) came out at 2.
